# Measurements as given in the supplement of paper PMC6757056.
# ± gives the standard deviation of the averaged measurements.
# B1: library; a variant is named by its letters at N, in order (parent)
# chain: GCUGUCACCGGUGCUUGGUACGUUAUAUUCAGCCGGUCUGAUGAGUCUNNNNNNAGACGAAACAGC
# Key:
# (6R,S)-folinic acid [1] = variants of: B1; experiment: FACS-Seq fitted mean relative fluorescence mCherry/BFP without ligand (log10 relative fluorescence); HEK293T overexpressing SLC46A1; higher = higher reporter protein expression; details: without (6R,S)-folinic acid; ligand present: no
# Outline: (§1)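 The ribozyme switch sat in an mCherry reporter, delivered by lentivirus into HEK293T libraries along with an EF1α-BFP marker. Enriched cells were incubated 48 h with or without ligand, sorted into 6 bins by mCherry/BFP, and bin genomic DNA was PCR-amplified, barcoded and MiSeq-sequenced. Fluorescence equals the fitted normal mean of the bin counts after normalization. Those log10(mCherry/BFP) means were scaled to five spiked-in control ribozymes.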
# (6R,S)-folinic acid [2] = variants of: B1; experiment: normalized RNA/DNA level without ligand (relative to sTRSVctl = 100) (log10 (% of sTRSVctl)); HEK293T overexpressing SLC46A1; higher = less ribozyme self-cleavage, higher mRNA level; details: without (6R,S)-folinic acid; ligand present: no
# Outline: (§2)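 Ribozyme switch library plasmids linked to reporters were introduced into HEK293T cells at 4 µg per 6-well well, with ligand, if any, added 1 h before. Total RNA was extracted with EDTA 72 h later, reverse-transcribed, amplified, barcoded and sequenced. RNA level was computed from RNA over DNA reads relative to a spiked-in non-cleaving sequence or the top sequences, then scaled and log-transformed. The top set was 25 sequences, values were ×100 and log10, and the cutoff was ≥100 DNA reads.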
# (6R,S)-folinic acid [3] = variants of: B1; experiment: FACS-Seq fitted mean relative fluorescence mCherry/BFP with ligand (log10 relative fluorescence); HEK293T overexpressing SLC46A1; ligand concentration (+) FACS-Seq: 6 mM; higher = higher reporter protein expression; details: with (6R,S)-folinic acid; ligand present: yes
# Outline: as §1
# (6R,S)-folinic acid [4] = variants of: B1; experiment: normalized RNA/DNA level with ligand (relative to sTRSVctl = 100) (log10 (% of sTRSVctl)); HEK293T overexpressing SLC46A1; ligand concentration (+) RNA-Seq: 6 mM; higher = less ribozyme self-cleavage, higher mRNA level; details: with (6R,S)-folinic acid; ligand present: yes
# Outline: as §2
Variant,"FACS-Seq fitted mean (log10) ((6R,S)-folinic acid [1])","normalized RNA/DNA level without ligand (log10) ((6R,S)-folinic acid [2])","FACS-Seq fitted mean (log10) ((6R,S)-folinic acid [3])","normalized RNA/DNA level with ligand (log10) ((6R,S)-folinic acid [4])"
GUUAGG,0.206 ± 0.031,1.938 ± 0.0023,0.301 ± 0.51,2 ± 0.031
GUUAUA,-0.102 ± 0.13,1.99 ± 0.031,-0.0941 ± 0.099,2.012 ± 0.019
GUUAUG,0.244 ± 0.011,1.929 ± 0.0065,0.431 ± 0.16,1.99 ± 0.0045
UUUAUG,0.307 ± 0.0054,1.79 ± 0.024,0.315 ± 0.17,1.96 ± 0.041
AUUAUU,0.191 ± 0.11,2.02 ± 0.023,0.497 ± 0.056,2.03 ± 0.024
CUUAUU,0.473 ± 0.12,1.985 ± 0.0074,0.678 ± 0.072,2.01 ± 0.024
GUUCAA,0.497 ± 0.083,1.98 ± 0.023,0.591 ± 0.17,1.98 ± 0.023
GUUCAC,0.0291 ± 0.011,2.041 ± 0.016,-0.0744 ± 0.017,2.032 ± 0.014
AUUCAG,0.281 ± 0.045,1.962 ± 0.0047,0.431 ± 0.097,2.009 ± 0.018
UUUCAG,0.263 ± 0.0041,1.916 ± 0.013,-0.0672 ± 0.0029,2.011 ± 0.02
GUUCCA,0.262 ± 0.14,2.0222 ± 0.00044,0.191 ± 0.16,2.03 ± 0.054
UUUCCG,0.446 ± 0.012,1.918 ± 0.012,0.493 ± 0.15,1.99 ± 0.05
GUUCGC,0.511 ± 0.017,2.07 ± 0.024,0.368 ± 0.16,2.05 ± 0.025
GUUCGG,0.155 ± 0.11,2.003 ± 0.0021,0.178 ± 0.021,1.985 ± 0.0024
GUUCUA,0.333 ± 0.067,2.03 ± 0.0066,0.412 ± 0.031,2.035 ± 0.0031
UUUCUG,0.112 ± 0.063,1.92 ± 0.0064,0.197 ± 0.012,2 ± 0.061
AUUGAA,0.561 ± 0.054,1.97 ± 0.01,0.718 ± 0.079,2 ± 0.014
GUUGAA,0.184 ± 0.013,1.95 ± 0.01,0.741 ± 0.0086,2.01 ± 0.035
UUUGAA,0.0652 ± 0.029,1.918 ± 0.0086,0.135 ± 0.075,1.98 ± 0.042
GUUGAC,0.276 ± 0.11,1.949 ± 0.018,0.451 ± 0.087,2.01 ± 0.028
AUUGAG,0.4944 ± 0.0016,1.715 ± 0.01,0.969 ± 0.14,1.946 ± 0.012

Variant,"FACS-Seq fitted mean (log10) ((6R,S)-folinic acid [1])","normalized RNA/DNA level without ligand (log10) ((6R,S)-folinic acid [2])","FACS-Seq fitted mean (log10) ((6R,S)-folinic acid [3])","normalized RNA/DNA level with ligand (log10) ((6R,S)-folinic acid [4])"
CUUGAG,0.41 ± 0.091,1.9276 ± 0.0002,0.534 ± 0.33,2.005 ± 0.0023
GUUGAG,0.527 ± 0.087,1.89 ± 0.02,0.542 ± 0.36,2.028 ± 0.013
UUUGAG,-0.104 ± 0.12,1.735 ± 0.0097,0.41 ± 0.25,1.98 ± 0.033
CUUGAU,0.145 ± 0.1,1.97 ± 0.018,0.602 ± 0.33,2.008 ± 0.018
UUUGAU,0.135 ± 0.022,1.9541 ± 0.0016,0.206 ± 0.34,1.99 ± 0.065
UUUGCA,0.00421 ± 0.011,1.981 ± 0.0053,-0.275 ± 0.0052,1.99 ± 0.032
AUUGCG,0.231 ± 0.12,1.8333 ± 0.00083,0.245 ± 0.22,2 ± 0.04
GUUGCG,0.325 ± 0.01,1.91 ± 0.02,0.566 ± 0.19,2.02 ± 0.038
UUUGCG,0.0287 ± 0.045,1.867 ± 0.0062,0.0548 ± 0.11,1.98 ± 0.042
GUUGCU,0.299 ± 0.016,2.02 ± 0.023,0.44 ± 0.32,2.008 ± 0.018
UUUGCU,0.805 ± 0.017,2.043 ± 0.02,0.618 ± 0.24,2.01 ± 0.084
AUUGGA,0.168 ± 0.094,1.941 ± 0.0048,0.119 ± 0.29,2.01 ± 0.038
CUUGGA,0.658 ± 0.053,2.001 ± 0.019,0.547 ± 0.15,1.99 ± 0.025
GUUGGA,0.594 ± 0.3,1.977 ± 0.013,0.154 ± 0.35,2.02 ± 0.04
UUUGGA,0.333 ± 0.049,1.9 ± 0.015,0.499 ± 0.056,1.98 ± 0.029
CUUGGC,0.556 ± 0.084,2.062 ± 0.0022,0.651 ± 0.35,2.04 ± 0.037
CUUGGG,0.49 ± 0.05,1.9697 ± 0.0016,0.119 ± 0.14,2.04 ± 0.03
UUUGGG,0.388 ± 0.062,1.71 ± 0.022,0.73 ± 0.13,1.94 ± 0.048
GUUGGU,0.346 ± 0.21,1.98 ± 0.027,0.126 ± 0.09,2.02 ± 0.029
GUUGUA,0.281 ± 0.083,1.962 ± 0.011,0.415 ± 0.15,1.97 ± 0.05
AUUGUG,0.281 ± 0.041,1.8 ± 0.0029,0.524 ± 0.1,1.99 ± 0.035

Variant,"FACS-Seq fitted mean (log10) ((6R,S)-folinic acid [1])","normalized RNA/DNA level without ligand (log10) ((6R,S)-folinic acid [2])","FACS-Seq fitted mean (log10) ((6R,S)-folinic acid [3])","normalized RNA/DNA level with ligand (log10) ((6R,S)-folinic acid [4])"
CUUGUG,0.147 ± 0.16,2.021 ± 0.012,-0.331 ± 0.28,2.02 ± 0.039
GUUGUG,0.391 ± 0.14,1.879 ± 0.0056,0.458 ± 0.072,2.01 ± 0.023
AUUUAC,0.138 ± 0.029,2.001 ± 0.018,0.497 ± 0.13,2.03 ± 0.026
UUUUAC,0.482 ± 0.098,1.975 ± 0.002,0.507 ± 0.18,1.97 ± 0.04
GUUUAG,0.516 ± 0.048,1.965 ± 0.0083,0.495 ± 0.068,2.02 ± 0.033
UUUUAG,0.393 ± 0.03,1.836 ± 0.0045,0.488 ± 0.26,1.97 ± 0.051
AUUUAU,0.207 ± 0.088,2.011 ± 0.0041,0.186 ± 0.11,2.01 ± 0.035
UUUUGA,0.586 ± 0.1,1.976 ± 0.013,0.704 ± 0.022,2.02 ± 0.036
AUUUGG,0.293 ± 0.04,1.88 ± 0.0039,0.37 ± 0.04,1.96 ± 0.023
UUUUGG,0.169 ± 0.054,1.8812 ± 0.0015,0.473 ± 0.2,2.01 ± 0.028
GUUUGU,0.326 ± 0.024,2.03 ± 0.034,0.672 ± 0.18,2.034 ± 0.014
AUUUUA,0.5131 ± 0.0034,1.969 ± 0.0082,0.318 ± 0.1,2.01 ± 0.023
GUUUUA,0.327 ± 0.011,2 ± 0.0092,0.461 ± 0.024,2.02 ± 0.029
AUUUUC,0.447 ± 0.23,2.031 ± 0.0051,0.549 ± 0.048,2 ± 0.021
CUUUUC,0.721 ± 0.2,2.06 ± 0.023,0.481 ± 0.091,2.02 ± 0.036
GUUUUC,0.421 ± 0.019,2.03 ± 0.021,0.346 ± 0.14,2 ± 0.028
AUUUUG,0.462 ± 0.029,1.927 ± 0.014,0.552 ± 0.039,1.99 ± 0.05
UUUUUG,0.145 ± 0.073,1.855 ± 0.016,0.176 ± 0.0085,2 ± 0.022
CUUUUU,0.61 ± 0.16,1.991 ± 0.013,0.733 ± 0.016,2.021 ± 0.018
CAAAAA,–,1.962 ± 0.007,–,1.96 ± 0.025
GAAAAA,–,1.986 ± 0.0038,–,2.01 ± 0.038

Variant,"FACS-Seq fitted mean (log10) ((6R,S)-folinic acid [1])","normalized RNA/DNA level without ligand (log10) ((6R,S)-folinic acid [2])","FACS-Seq fitted mean (log10) ((6R,S)-folinic acid [3])","normalized RNA/DNA level with ligand (log10) ((6R,S)-folinic acid [4])"
CAAAAG,–,1.903 ± 0.0085,–,1.945 ± 0.015
CAAACA,–,1.979 ± 0.014,–,2 ± 0.044
GAAACA,–,2.017 ± 0.018,–,2.04 ± 0.026
UAAACA,–,1.96 ± 0.02,–,1.994 ± 0.016
GAAACC,–,2.035 ± 0.013,–,2.03 ± 0.033
UAAACC,–,2.006 ± 0.0033,–,2.01 ± 0.043
AAAACC,–,2.0338 ± 0.0018,–,2.02 ± 0.048
CAAACG,–,2.02 ± 0.0085,–,2.03 ± 0.036
GAAACG,–,1.961 ± 0.0057,–,2 ± 0.038
UAAACU,–,2.008 ± 0.013,–,2.02 ± 0.058
AAAAGA,–,1.957 ± 0.0042,–,2.02 ± 0.021
CAAAGA,–,1.988 ± 0.015,–,1.99 ± 0.034
CAAAGC,–,1.992 ± 0.015,–,2 ± 0.04
GAAAGC,–,1.966 ± 0.0051,–,2.0058 ± 0.0012
CAAAGG,–,1.909 ± 0.0072,–,2 ± 0.021
CAAAGU,–,1.983 ± 0.013,–,2.01 ± 0.025
AAAAGU,–,1.94 ± 0.013,–,2 ± 0.041
GAAAGU,–,1.9823 ± 0.00097,–,2.02 ± 0.034
